Reference: FireProtDB (doi:10.1016/j.jmb.2004.09.082)

Details: Escherichia coli (strain K12); pH 7.8; 25 °C; GdnHCl; Chromatography; Tris-HCl 5 mM; KCl 200 mM; reversible: yes; whole UniProt chain shown

B1: Co-chaperonin GroES wild type, P0A6F9 (protein)
chain: MNIRPLHDRVIVKRKEVETKSAGGIVLTGSAAAKSTRGEVLAVGNGRILENGEVKPLDVKVGDIVIFNDGYGVKSEKIDNEEVLIMSESDILAIVEA
denaturant m value: 2.3 kcal/mol/M
unfolding free energy: 2.3 kcal/mol
